According to US20080020405A1, “Protein binding determination and manipulation” (priority 2002, published 2008):

Molecular target: T1, WT SCCE (Stratum Corneum Chymotryptic Enzyme) (Homo sapiens, UniProt P49862)
T1 construct: made in house; host or cells: High 5 insect cells, transient transfection with pIE1-153A V4+ plasmid, protein secreted into the medium, Ni-NTA purified
Assay: Panning of the 6mer tandem phage peptide display library against WT SCCE, four rounds, clones sequenced
Assay type: binding
Details: for Hypervarible Domain, DNA sequence of clone, 6 mer Lib Panning Round 4 SCCE WT / Hypervarible Domain, peptide sequence of clone, 6 mer Lib Panning Round 4 SCCE WT: 6mer library, panning round 4 against SCCE WT; for Hypervarible Domain, DNA sequence of clone, 6 mer Lib Panning Round 4 SCCE WT: flanking TGC (Cys) codons; for Hypervarible Domain, peptide sequence of clone, 6 mer Lib Panning Round 4 SCCE WT: translated hexapeptide
Protocol: Packaging of Phagemids from Cells • 1. Re-suspend the complete lawns of the E. coli cells in 20 ml of LB/Amp/Tc medium and use 2 ml for inoculation of 50 ml LB/Amp/Tc medium (250 ml Erlenmeyer flask). • 1. Incubate at 180 rpm and 37° C. for 1 hour, add […] of M13K07 stock solution (10^11-10^12 cfu/ml) and incubate for 15 minutes at 37° C. without shaking. • 2. Allow the culture to shake at 37° C. for 45 min, then add Kanamycin (final concentration of 50 μg/ml) and continue the incubation at 37° C. @ 180 rpm overnight. • 3. The next day, centrifuge for 15 minutes at 8,000 rpm and 4° C. (GS3 rotor, Sorvall RC5C). • 4. Transfer the supernatant into a new centrifuge bottle and centrifuge again. • 5. Transfer the supernatant again, add 0.15 vol of PEG/NaCl solution, mix and incubate on ice for at least 2 hours. • 6. Centrifuge for 40 minutes at 8,000 rpm (GS3 rotor) • 7. Decant the supernatant, repeat the centrifugation for 1 minute at 4,000 rpm and remove last traces of supernatant using a pipet. • 8. Re-suspend each PEG-pellet in 1.0 ml PBS solution and collect the re-suspended phages in one SS34 centrifuge bottle • 9. To clear the suspension, centrifuge again for 10 minutes at 12,000 rpm (SS34 rotor). • 10. Recover the supernatant (pipet), add NaN3 to a final concentration of 0.02% and store the library at 4° C. Determination of Phagemid (Library) Titer (Colony Forming Units [CFU] Assay) • 1. Inoculate 20 ml of LB/Tc (20 μg/ml) medium with 200 μl of an E. coli WK6λmutS overnight culture (37° C.; LB/Tc) and incubate at 37° C. and 180 rpm for 2 to 3 hours (OD600=0.5) • 2. Fill 12 wells of a sterile 96-well culture dish with 90 μl of autoclaved water and prepare dilution series by transferring 10 μl aliquots of the library stock (dilutions 10^−1 to 10^−12). • 3. Add 100 μl of logarithmic growing cells, mix and incubate for 30 min at 37° C. • 4. Spot 20 μl portions of each well on LB/Amp/Tc agar plates and incubate over night at 37° C. • 5. As a control use 20 μl of non-infected log-phase cells spotted on LB/Amp/Tc and LB/Tc agar plates. • 6. Count the number of colonies on the next day and determine the titer. Panning Protein Targets • WT SCCE is the Stratum Corneum Chymotryptic Enzyme subdloned in the pIE vector and adapted with a carboxy-terminal polyglycine linker and polyhistidine sequence to facilitate purification and immobilization (see WT SCCE preparation below). The adaptations were performed using a QuickChange mutagenesis kit. The sequence is listed in document SCCE His6 pIE.doc. • Fyn SCCE is the Stratum Corneum Chymotryptic Enzyme adapted with a polyglycine liker, the Fyn SH3 domain and additional polyglycine linker and a polyhistidine sequence (see Fyn SCCE preparation below). The final sequence is listed in document SCCE FYN His6 pIE.doc. The modifications to create Fyn SCCE were performed using WT SCCE as a template using a QuickChange mutagenesis kit. • The expression and purification of WT SCCE and Fyn SCCE are presented in document SCCE production.doc Pre-Adsorption of Library with Matrix to Remove Non-Specific Binding • 1. Take 25 μl Ni-NTA Magnetic Agarose Beads (Qiagen) in a 1.5 ml tube (siliconized), labeled pre-adsorption library. • 2. Place in Magnet and remove Sup. • 3. Wash 2 times (2 min each time) with 500 μl Ni-NTA Binding Buffer (50 mM NaH2PO4 pH8.0, 300 mM NaCl, 10 mM Imidazole) to equilibrate beads to Immidizole. • 4. Add 200 μl TBS-T 0.1% BSA+200 μl (10^12 phage) of 6mer library to tube labeled pre-adsorption library (to remove phage that stick non-specifically to the beads). • 5. Incubate @ room temperature for 1 h w/rotation. Coating Matrix with Target Protein • 6. Take 25 μl Ni-NTA Magnetic Agarose Beads (Qiagen) in 2 separate 1.5 ml Ep tubes (siliconized), labeled SSCE-WT and SCCE-FYN. • 7. Place in Magnet and remove Sup. • 8. Wash 2 times (2 min each time) with (500 μl) Ni-NTA Binding Buffer (50 mM NaH2PO4 pH8.0, 300 mM NaCl, 10 mM Imidazole) to equilibrate beads to Immidizole. • 9. […]

T1 sequence (P49862 30-253): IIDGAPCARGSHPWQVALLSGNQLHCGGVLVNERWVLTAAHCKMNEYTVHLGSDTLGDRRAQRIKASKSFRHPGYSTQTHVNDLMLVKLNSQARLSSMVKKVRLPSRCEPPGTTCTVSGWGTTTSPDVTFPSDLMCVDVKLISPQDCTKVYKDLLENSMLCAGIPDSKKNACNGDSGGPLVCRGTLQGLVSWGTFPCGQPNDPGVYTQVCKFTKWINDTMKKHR

| Substance | Hypervarible Domain, DNA sequence of clone, 6 mer Lib Panning Round 4 SCCE WT | Hypervarible Domain, peptide sequence of clone, 6 mer Lib Panning Round 4 SCCE WT | Clone sequence also found in the other panning (remark) (panning round 4 SCCE WT) |
| --- | --- | --- | --- |
| 041307_3 (QPHTWK; printed: Gln Pro His Thr Trp Lys) | TGCCAGCCGCATACGTGGAAGTGC | Gln Pro His Thr Trp Lys | (Also in SCCE FYN) |
| 041307_4 (TAAVDQ; printed: Thr Ala Ala Val Asp Gln) | TGCACGGCTGCGGTGGATCAGTGC | Thr Ala Ala Val Asp Gln |  |
| 041307_5 (KQNSEA; printed: Lys Gln Asn Ser Glu Ala) | TGCAAGCAGAATAGTGAGGCGTGC | Lys Gln Asn Ser Glu Ala |  |
| 041307_7 (PVAETP; printed: Pro Val Ala Glu Thr Pro) | TGCCCTGTGGCGGAGACGCCTTGC | Pro Val Ala Glu Thr Pro |  |
| 041307_8 (TPNSAI; printed: Thr Pro Asn Ser Ala Ile) | TGCACGCCTAATTCTGCGATTTGC | Thr Pro Asn Ser Ala Ile |  |
| 041307_10 (SHVRRN; printed: Ser His Val Arg Arg Asn) | TGCAGTCATGTTAGGCGTAATTGC | Ser His Val Arg Arg Asn |  |
| 041307_11 (HHGLIV; printed: His His Gly Leu Ile Val) | TGCCATCATGGGCTTATTGTGTGC | His His Gly Leu Ile Val |  |
| 041307_12 (YAKTMR; printed: Tyr Ala Lys Thr Met Arg) | TGCTATGCGAAGACGATGCGGTGC | Tyr Ala Lys Thr Met Arg |  |
| 041307_17 (HHGLIV; printed: His His Gly Leu Ile Val) | TGCCATCATGGGCTTATTGTGTGC | His His Gly Leu Ile Val |  |
| 041307_18 (HHGLIV; printed: His His Gly Leu Ile Val) | TGCCATCATGGGCTTATTGTGTGC | His His Gly Leu Ile Val |  |
| 041307_19 (HHGLIV; printed: His His Gly Leu Ile Val) | TGCCATCATGGGCTTATTGTGTGC | His His Gly Leu Ile Val |  |
| 041307_22 (HHGLIV; printed: His His Gly Leu Ile Val) | TGCCATCATGGGCTTATTGTGTGC | His His Gly Leu Ile Val |  |
| 041307_25 (TPKAKP; printed: Thr Pro Lys Ala Lys Pro) | TGCACTCCTCTGGCGCTTCCTTGC | Thr Pro Lys Ala Lys Pro |  |
| 041307_27 (KKKKTK; printed: Lys Lys Lys Lys Thr Lys) | TGCAAGAAGAAGAAGACGAAGTGC | Lys Lys Lys Lys Thr Lys |  |
| 041307_29 (HHGLIV; printed: His His Gly Leu Ile Val) | TGCCATCATGGGCTTATTGTGTGC | His His Gly Leu Ile Val |  |
| 041307_30 (PNNKIR; printed: Pro Asn Asn Lys Ile Arg) | TGCCCGAATAATAAGATTAGGTGC | Pro Asn Asn Lys Ile Arg |  |
| 041307_31 (TSTRPP; printed: Thr Ser Thr Arg Pro Pro) | TGCACTTCTACTAGGCCTCCTTGC | Thr Ser Thr Arg Pro Pro |  |
| 041307_32 (HMNMYI; printed: His Met Asn Met Tyr Ile) | TGCCATATGAATATGTATATTTGC | His Met Asn Met Tyr Ile |  |
| 041307_35 (TGAGRS; printed: Thr Gly Ala Gly Arg Ser) | TGCACGGGGGCGGGGCGGTCGTGC | Thr Gly Ala Gly Arg Ser |  |
